# From publication PMC3355305, “Localized Dimerization and Nucleoid Binding Drive Gradient Formation by the Bacterial Cell Division Inhibitor MipZ” (Molecular Cell, 2012)
# B1: MipZ (wild type), hexahistidine-tagged [Caulobacter crescentus] / itself (parent)
# chain: MAETRVIVVGNEKGGAGKSTIAVHLVTALLYGGAKVAVIDLDLRQRTSARFFENRRAWLDNKKIELPEPLALNLSDNDVALAERPEEEQVAGFEAAFARAMAECDFILIDTPGGDSAITRMAHGRADLVVTPMNDSFVDFDMLGTVDPVTLELTKPSLYSLTVWEGRKQRALSGQRQAMDWVVLRNRLATTEARNRKRLEDRLNALAKRVGFRIGPGLRDRVIYRELFPFGLTIADLSPQVRPVPVSLQHLAARQELRALMHSLGLSAYSGETMLAAQ
# Variants of: B1
# Test: SPR
# Settings: with itself; 3500 RU immobilized protein; 0.5 μM soluble protein; + ATP; parent: 370; read off a plot
row,response [RU],Variant
1,910,MAETRVIVVGNEKGGAGKSTIAVHLVTALLYGGAKVAVIDLALRQRTSARFFENRRAWLDNKKIELPEPLALNLSDNDVALAERPEEEQVAGFEAAFARAMAECDFILIDTPGGDSAITRMAHGRADLVVTPMNDSFVDFDMLGTVDPVTLELTKPSLYSLTVWEGRKQRALSGQRQAMDWVVLRNRLATTEARNRKRLEDRLNALAKRVGFRIGPGLRDRVIYRELFPFGLTIADLSPQVRPVPVSLQHLAARQELRALMHSLGLSAYSGETMLAAQ [chain 1 D42A]

# Same assay, conditions: with itself; 3500 RU immobilized protein; 0.5 μM soluble protein; ATP in the binding phase; wash with buffer lacking protein and nucleotides
row,koff [s⁻¹],Variant
1,0.00112,MAETRVIVVGNEKGGAGKSTIAVHLVTALLYGGAKVAVIDLALRQRTSARFFENRRAWLDNKKIELPEPLALNLSDNDVALAERPEEEQVAGFEAAFARAMAECDFILIDTPGGDSAITRMAHGRADLVVTPMNDSFVDFDMLGTVDPVTLELTKPSLYSLTVWEGRKQRALSGQRQAMDWVVLRNRLATTEARNRKRLEDRLNALAKRVGFRIGPGLRDRVIYRELFPFGLTIADLSPQVRPVPVSLQHLAARQELRALMHSLGLSAYSGETMLAAQ [chain 1 D42A]
